Measured values taken from patent US20040166544A1 (published 2004).
Where “and” joins values, the source holds several entries; their conditions need not be identical. Equal entries are not always repeated.

Columns and labels:
[1] = biological target: T1, c-Met/Fc Chimera (R&D Systems, catalog # 358-MT-100) (human, UniProt P08581 25-932); experiment: competition ELISA: displacement of biotinylated HGF from plate-coated c-Met/Fc chimera; value stands in the Fab column, n = 2
T1 construct: extracellular domain; Bought reagent; also called human c-Met-Fc fusion protein; recombinant c-Met protein; Fc part of the bought chimera not given
Procedure: (§1) 96-well Fluoronunc plates were coated with 50 ul of 0.5 ug/ml c-Met/Fc Chimera (R&D Systems, Minneapolis Minn., catalog # 358-MT-100) in phosphate buffered saline (PBS) and the plates were incubated overnight at room temperature. Wells were washed three times with washing buffer (PBS+0.1% Tween 20), blotting the plates on paper towels between each wash. Nonspecific binding in the wells was blocked by the addition of 250 ul of blocking buffer (3.0% milk (Carnation) in PBS) to each well and incubated at room temperature for two hours.
The c-Met antibodies were diluted in reagent buffer (PBS, 0.5% BSA, 0.05% Tween-20) and titrations were performed in 96 well polypropylene plates. Biotinylated HGF (0.4 ug/ml) (R&D Systems, biotinylated with Pierce #21335 as per manufacturer's instructions) was added to each well. 50 ul of the dilutions were transferred into the Fluoronunc plates containing human c-Met-Fc fusion protein (R&D Systems, #) and the plates were incubated for two hours at room temperature. The plates were washed three times with wash buffer and blotted onto paper towels. […] Plates were read on a fluorescence plate reader and analyzed using GraphPad Prism software (GraphPad Software, San Diego, Calif.). […]

[2] = biological target: c-Met (endogenous, on human cell lines 184B5, HCT-116, DU-145 and NCI H441) (human, UniProt P08581 25-1390); experiment: cell-based or functional assay
[3] = biological target: T1, c-Met/Fc Chimera (R&D Systems, catalog …); experiment: competition ELISA: displacement of biotinylated HGF from plate-coated c-Met/Fc chimera, IgG, n = 2
Procedure: as §1
(§2) The c-Met antibodies were diluted in reagent buffer (PBS, 0.5% BSA, 0.05% Tween-20) and titrations were performed in 96 well polypropylene plates. Biotinylated HGF (0.4 ug/ml) (R&D Systems, biotinylated with Pierce #21335 as per manufacturer's instructions) was added to each well. 50 ul of the dilutions were transferred into the Fluoronunc plates containing human c-Met-Fc fusion protein (R&D Systems, #) and the plates were incubated for two hours at room temperature. The plates were washed three times with wash buffer and blotted onto paper towels. 50 ul of europium-labeled Streptavidin (Wallac Perkin Elmer) diluted 1:1000 in Delfia assay buffer (Wallac Perkin Elmer) was added per well and the plates were incubated for one hour at room temperature. The plates were washed seven times with Delfia wash buffer (Tris buffered saline (TBS) supplemented with 0.1% Tween-20) and blotted onto paper towels. 100 ul Delfia enhancer solution (Wallac Perkin Elmer) was added to each well and the plates incubated for 5 minutes on a plate shaker at room temperature. Plates were read on a fluorescence plate reader and analyzed using GraphPad Prism software (GraphPad Software, San Diego, Calif.).
(§3) C-Met antibodies 1A3.3.13 (#HB-11894, ATCC Hybridoma) and 5D5.11.6 (#HB-11895, ATCC Hybridoma) were used as positive controls. MOPC-21 (#M-7894, Sigma) was used as an IgG isotype control and HB-94 (#HB-94, ATCC Hybridoma) was converted into a Fab fragment and used as a Fab isotype control. NK4-Elastase is a kringle to kringle 4 fragment resulting from digesting intact HGF purified from S-114 cells with elastase (Date et al., FEBS Lett. 420:1-6 ([…]).

[4] = biological target: T2, biotinylated c-Met-Fc (R&D Systems, #358-MT-100/CF, 5.1 biotin per c-Met molecule) (human, UniProt P08581 25-932, biotinylated, 5.1 biotin per c-Met molecule (Pierce #21335)); experiment: SPR (BIAcore), biotinylated c-Met-Fc captured on streptavidin chip, IgG as analyte, bivalent model
T2 construct: extracellular domain; Captured on a streptavidin (SA) chip for the BIAcore study of the IgGs; Fc part of the bought chimera not given
Procedure: The binding properties (on-rate, off-rate and affinity) of c-Met monoclonal antibodies (IgG or Fab versions) with human c-Met extracellular domain was determined using surface plasmon resonance, or BLAcore, technology. For the binding studies with IgG, a low density (<1 ng/mm2) of c-Met-Fc (R&D Systems, #358-MT-100/CF) containing 5.1 biotin per c-Met molecule (prepared with Pierce #21335 as per manufacturer's instructions) was captured onto a SA chip precoated with Streptavidin (BIAcore Inc.). A streptavidin flow cell without adsorbed c-Met-Fc was used as a control cell for non-specificbinding. The antibody sample to be analyzed was prepared in HEPES buffer (0.15M NaCl, 10 mM HEPES, 3.4 mM EDTA, 0.005% surfactant P-20, pH 7.4) to form a set of solutions varied in concentration from 0.78 nM to 100 nM. The HEPES buffer used as the running solution was set at a flow rate of 50 ul/min. Each sample solution was injected over the two flow cells for three minutes, followed by 5 minutes of dissociation. The flow cells were then regenerated with 4.5M MgCl₂ for one minute to remove the bound antibody for the next cycle of binding study. The net sensorgrams (subtraction of sensorgrams from the negative control flow cell as well as that from the buffer blank) obtained for each set of samples were processed simultaneously in a global fitting using a bivalent binding model of the BIAevaluation software program equipped with the system. The on-rate (Kₐ), off-rate (Kd) and binding affinity (KD) were determined from the fitting with KD equal to kd/kₐ.

[5] = biological target: T1, c-Met/Fc Chimera (R&D Systems, catalog …); experiment: europium (DELFIA) ligand competition ELISA: biotinylated HGF binding to plate-coated c-Met/Fc Chimera, antibody titrated
Procedure: as §1, §2

[6] = biological target: T1, c-Met/Fc Chimera (R&D Systems, catalog …); experiment: competition ELISA: displacement of biotinylated HGF from plate-coated c-Met/Fc chimera, Fab, n = 2
Procedure: as §1, §2, §3

Binder	scatter assay on DU-145 cells, mean object area, agonist (alone), 100 nM IgG; the smaller the number, the more scattering [2] [mean object area]	scatter assay on DU-145 cells, mean object area, antagonist (w/30 pM HGF), 100 nM IgG; the smaller the number, the more scattering [2] [mean object area]	IC50 [3] [nM]	Kd [4] [nM]	koff [4] [s⁻¹]	kon [4] [M⁻¹ s⁻¹]	IC50 (read off the curve) [5] [nM]	IC50 [6]	further results
NK4-Elastase (ligand, UniProt P14210 32-478, looked up, domain: kringle to kringle 4 fragment) QRKRRNTIHEFKKSAKTTLIKIDPALKIKTKKVNTADQCANRCTRNKGLPFTCKAFVFDKARKQCLWFPFNSMSSGVKKEFGHEFDLYENKDYIRNCIIGKGRSYKGTVSITKSGIKCQPWSSMIPHEHSFLPSSYRGKDLQENYCRNPRGEEGGPWCFTSNPEVRYEVCDIPQCSEVECMTCNGESYRGLMDHTESGKICQRWDHQTPHRHKFLPERYPDKGFDDNYCRNPDGQPRPWCYTLDPHTRWEYCAIKTCADNTMNDTDVPLETTECIQGQGEGYRGTVNTIWNGIPCQRWDSQYPHEHDMTPENFKCKDLRENYCRNPDGSESPWCFTTDPNIRVGYCSQIPNCDMSHGQDCYRGNGKNYMGNLSQTRSGLTCSMWDKNMEDLHRHIFWEPDASKLNENYCRNPDDDAHGPWCYTGNPLIPWDYCPISRCEGDTTPTIV	–	–	–	–	–	–	–	–	IC50 [1]: 900 nM and 551 nM
NK4-6His (recombinant NK4, CHO DG44/pPHA27965) (ligand, domain: NK4; also called NK4-His) QRKRRNTIHEFKKSAKTTLIKIDPALKIKTKKVNTADQCANRCTRNKGLPFTCKAFVFDKARKQCLWFPFNSMSSGVKKEFGHEFDLYENKDYIRNCIIGKGRSYKGTVSITKSGIKCQPWSSMIPHEHSFLPSSYRGKDLQENYCRNPRGEEGGPWCFTSNPEVRYEVCDIPQCSEVECMTCNGESYRGLMDHTESGKICQRWDHQTPHRHKFLPERYPDKGFDDNYCRNPDGQPRPWCYTLDPHTRWEYCAIKTCADNTMNDTDVPLETTECIQGQGEGYRGTVNTIWNGIPCQRWDSQYPHEHDMTPENFKCKDLRENYCRNPDGSESPWCFTTDPNIRVGYCSQIPNCDMSHGQDCYRGNGKNYMGNLSQTRSGLTCSMWDKNMEDLHRHIFWEPDASKLNENYCRNPDDDAHGPWCYTGNPLIPWDYCPISRCEGDTTPTIVHHHHHH	–	–	–	–	–	–	–	–	IC50 [1]: > 125 nM
c-Met IgG antibody 12119 (antibody, V domains shown, IgG of scFv PGIA-5-A1; also called 12119 IgG; IgG of scFv PGIA-05-A1 (PGIA-5-A1)) VH: QLQLQESGPGLVKPSGTLSLTCAVSGGSISTSDWWSWVRRPPGKGLEWIGEIYHSGSTNYHPSLKSRVTISLDKSKNQFSLKLSSVTAADTAVYYCAREGGHSGSYPLDYWGRGTLVTVSS VL: NFMLTQPHSVSESPGKTVTISCARSSGSIASNYVQWYQQRPGSSPTTLIYEDRQRPSGVPDRFSGSIDSSSNSASLTISGLKTEDEADYYCQSYDSSDHVVFGGGTKLTVLG	285	293	0.64	13	0.00112	86000	~0.7	–	–
c-Met 12119 Fab (Fab, V domains shown, VH and VL limits counted as for the IgG; also called Fab fragment derived from c-Met antibody 12119) VH: QLQLQESGPGLVKPSGTLSLTCAVSGGSISTSDWWSWVRRPPGKGLEWIGEIYHSGSTNYHPSLKSRVTISLDKSKNQFSLKLSSVTAADTAVYYCAREGGHSGSYPLDYWGRGTLVTVSS VL: NFMLTQPHSVSESPGKTVTISCARSSGSIASNYVQWYQQRPGSSPTTLIYEDRQRPSGVPDRFSGSIDSSSNSASLTISGLKTEDEADYYCQSYDSSDHVVFGGGTKLTVLG	–	–	–	–	–	–	–	10.7 nM	–
c-Met IgG antibody 11994 (antibody, V domains shown, IgG of scFv PGIA-3-A9; also called 11994 IgG; 11994-50) VH: QVQLQESGPGLVKPSGTLSLTCAVSGGSISTSDWWSWVRRPPGKGLEWIGEIYHSGSTNYHPSLKSRVTISLDKSKNQFSLKLSSVTAADTAVYYCAREGGHSGSYPLDYWGKGTLVTVSS VL: NFMLTQPHSVSESPGKTVTISCTRSSGSIASNYVQWYQQRPGSSPTTVIYEDNQRPSGVPDRFSGSIDSSSNSASLTISGLKTEDEADYYCQSYDSSNQGVVFGGGTKLTVLG	–	–	0.58	8.4	0.000759	90600	~0.7	–	–
c-Met 11986 Fab (Fab, V domains shown, VH and VL limits counted as for the IgG) VH: EVQLVQSGAEVKKPGATLKVSCKVSAYTFTDYSMHWVQQAPGKGLKWMGLIDLEDGNTIYAEEFQDRVTITADTSTDTAYMDLSSLRSEDTAVFYCAISPLRGLTADVFDVWGQGTLVTVSS VL: QSALTQPASASGSPGQSITISCTGTSSDIGRYDFVSWYQRQPGKAPKLMIYDVINRPSGVSSRFSGSKSGNTASLTISGLQAEDEADYYCSSYAGSTTLYVFGTGTKLTVLG	–	–	–	–	–	–	–	80 nM	–
c-Met IgG antibody 11978 (antibody, V domains shown, IgG of scFv PGIA-1-A8; also called IgG of scFv PGIA-01-A8 (PGIA-1-A8)) VH: not shown VL: NFMLTQPHSVSESPGKTVTISCTRSSGSIAFDYVQWYQQRPGSAPTTVIYEDNQRPSGVPDRFSASIDSSSNSASLTISALKTEDEADYYCQSYDNSNSWVFGGGTKLTVLG	459	372	0.84	–	–	–	~0.8	–	–
c-Met 11978 Fab (Fab, V domains shown, VH and VL limits counted as for the IgG) VH: not shown VL: NFMLTQPHSVSESPGKTVTISCTRSSGSIAFDYVQWYQQRPGSAPTTVIYEDNQRPSGVPDRFSASIDSSSNSASLTISALKTEDEADYYCQSYDNSNSWVFGGGTKLTVLG	–	–	–	–	–	–	–	65.9 nM and > 125 nM	–
c-Met IgG antibody 12075 (antibody, V domains shown, IgG of scFv PGIA-3-A11; also called 12075 IgG; IgG of scFv PGIA-03-A11 (PGIA-3-A11)) VH: QVQLVQSGPEVKKPGASVEVSCKASGYTFTGDYMHWVRQAPGQGPEWMGWINPQTGVTKYAQKFQGRVTMARDTSINTAYMELRGLRSDDTAVYYCVREDHNYDLWSAYNGLDVWGQGTLVTVSS VL: QSVLTQPPSVSAAPGQKVTISCSGSSSNIGNNHVSWYQQLAGTAPKLLIFDNDKRPSGIPDRFSGSKSGTSATLGITGLQTGDEADYYCGTWDKSPTDIYVFGSGTKLTVLG	318	289	2.55	552	0.00845	15300	~3	–	–
c-Met 12075 Fab (Fab, V domains shown, VH and VL limits counted as for the IgG; also called Fab fragment derived from c-Met antibody 12075) VH: QVQLVQSGPEVKKPGASVEVSCKASGYTFTGDYMHWVRQAPGQGPEWMGWINPQTGVTKYAQKFQGRVTMARDTSINTAYMELRGLRSDDTAVYYCVREDHNYDLWSAYNGLDVWGQGTLVTVSS VL: QSVLTQPPSVSAAPGQKVTISCSGSSSNIGNNHVSWYQQLAGTAPKLLIFDNDKRPSGIPDRFSGSKSGTSATLGITGLQTGDEADYYCGTWDKSPTDIYVFGSGTKLTVLG	–	–	–	–	–	–	–	> 125 nM	–
